One data set addresses Xpo1;Ran[GTP] Q71L (Saccharomyces cerevisiae;Saccharomyces …, UniProt P30822;P32835 1-1071;1-219, |Q71L). Nature of the data set: EMSA; no Ded1; no significant supershift; EMSA: 50 mM Tris pH 7.8, 60 mM NaCl, 2 mM MgCl2, 0.1 mg/mL BSA, 5% glycerol, 1 U/uL RNasin Plus, 0.01% NP-40, 1 mM DTT; 900 nM Ded1, 10 nM RNA, 20 min room temp.
For another data set, the target named is Ded1 sNES (Saccharomyces cerevisiae, UniProt P06634 =D+1-604, A2D;E6K;Q7K;V8F;Q9G;N10T;internal_change). Nature of the data set: EMSA; 3 mM AMP-PNP; bound to the same extent as wild-type Ded1; EMSA: 50 mM Tris pH 7.8, 60 mM NaCl, 2 mM MgCl2, 0.1 mg/mL BSA, 5% glycerol, 1 U/uL RNasin Plus, 0.01% NP-40, 1 mM DTT; 900 nM Ded1, 10 nM RNA, 20 min room temperature, then 41mer competitor RNA (27 uM solution) 1 min before 7% native PAGE at 4 C. The note with it: protein: recombinant; tags: His-tag removed with preScission protease; N-terminal GP from vector; single-stranded. On the technique in general: A gel shift assay detects complexes by their altered migration in electrophoresis.

In another data set the target is Ded1 wild type (Saccharomyces cerevisiae, UniProt P06634 1-604). Kind of data set: EMSA; 3 mM AMP-PNP; challenged with unlabeled 41mer RNA; EMSA: 50 mM Tris pH 7.8, 60 mM NaCl, 2 mM MgCl2, 0.1 mg/mL BSA, 5% glycerol, 1 U/uL RNasin Plus, 0.01% NP-40, 1 mM DTT; 900 nM Ded1, 10 nM RNA, 20 min room temperature, then 41mer competitor RNA (27 uM solution) 1 min before 7% native PAGE at 4 C. The note with it: protein: recombinant; tags: His-tag removed with preScission protease; N-terminal GP from vector; single-stranded.

These results are taken from paper PMC4484809, “Formation of a Trimeric Xpo1-Ran[GTP]-Ded1 Exportin Complex Modulates ATPase and Helicase Activities of Ded1”.

Consider CGAAUUCAAAACAAAACAAAACUAG (ssRNA) [25mer FAM-labeled ssRNA], for which the binding result with Xpo1;Ran[GTP] Q71L is given as “no binding”; with Ded1 sNES, “binds”; with Ded1 wild type it was “binds”.
